Reference: article PMC4191399
Positions count from the first letter of the chain named.

How the values were obtained:
Experiment in all cases: fluorescence polarization
Conditions in all cases: internal 6-carboxyfluorescein in backbone between U12 and C13 (central tetraloop bases); 25 mM MOPS pH 7.4, 150 mM KCl, 2 mM DTT, 2 mM MgCl2, 0.01% Triton X-100, 1 nM RNA, room temperature, 1 h
[1] = target: T1, RIG-I R791A R791A (Homo sapiens) (UniProt O95786)
T1 sequence: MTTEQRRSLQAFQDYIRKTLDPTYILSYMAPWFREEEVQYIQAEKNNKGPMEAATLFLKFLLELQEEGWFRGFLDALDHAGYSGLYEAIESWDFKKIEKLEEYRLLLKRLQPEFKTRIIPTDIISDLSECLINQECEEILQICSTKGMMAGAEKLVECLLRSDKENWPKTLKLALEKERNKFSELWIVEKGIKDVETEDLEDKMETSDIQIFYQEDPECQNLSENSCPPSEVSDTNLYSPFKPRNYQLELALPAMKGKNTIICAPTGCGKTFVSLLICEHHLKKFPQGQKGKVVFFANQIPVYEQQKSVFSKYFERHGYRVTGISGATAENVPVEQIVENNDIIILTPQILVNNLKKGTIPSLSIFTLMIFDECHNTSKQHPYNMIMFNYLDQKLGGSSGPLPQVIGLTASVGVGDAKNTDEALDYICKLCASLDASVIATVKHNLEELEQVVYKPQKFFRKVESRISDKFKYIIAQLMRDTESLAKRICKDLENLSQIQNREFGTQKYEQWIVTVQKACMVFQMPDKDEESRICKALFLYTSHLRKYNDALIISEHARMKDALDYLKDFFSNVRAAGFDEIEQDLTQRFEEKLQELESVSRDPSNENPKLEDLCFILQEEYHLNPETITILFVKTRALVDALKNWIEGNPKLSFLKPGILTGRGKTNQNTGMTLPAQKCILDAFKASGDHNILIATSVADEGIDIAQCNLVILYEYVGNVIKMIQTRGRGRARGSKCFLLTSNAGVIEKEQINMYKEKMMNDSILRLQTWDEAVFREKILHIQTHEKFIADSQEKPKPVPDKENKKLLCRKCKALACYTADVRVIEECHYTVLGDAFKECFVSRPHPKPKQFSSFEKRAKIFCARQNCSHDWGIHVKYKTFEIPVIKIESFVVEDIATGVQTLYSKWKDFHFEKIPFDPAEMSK

[2] = target: T2, RIG-I Q784A/R791A Q784A;R791A (Homo sapiens) (UniProt O95786)
T2 sequence: T1 sequence with Q784A

[3] = target: T3, RIG-I K788A K788A (Homo sapiens) (UniProt O95786)
T3 sequence: T1 sequence with K788A, A791R

Sequence: GGACGUACGUUUCGACGUACGUCC [5'OH10L-F]
- Kd [1]: 50.7 nM
- Kd [2]: 91.4 nM
- Kd [3]: 21.6 nM
